Reference: patent publication US20250127918A1, “SITE-SELECTIVE CONJUGATION OF A PHARMACEUTICAL AGENT TO AN ANTIBODY USING AN AFFINITY PEPTIDE” (priority 2023, published 2025)

Key:
Trastuzumab [1] = target: T1, Trastuzumab (Homo sapiens, UniProt P01857, D239E/L241M); assay: Determination of the modification sites (Trypsin/Lys-C digest, nLC-MS/MS); format: biochemical; conditions: Tmab, LC-MS/MS sequencing
T1 construct: purchased Syd Labs Inc; MedChemExpress LLC; Bio X Cell
Method: The modified trastuzumab (30 μg) from entry 6 of 5.2.1 was diluted to 36 μL using Tris buffer (50 mM, pH 8.0). PNGase F (New England BioLabs, 200 units) was added to the solution and incubated at 37° C. for 4 hours. The reaction solution was then brought to room temperature, and urea solution (6M in 50 mM Tris pH 8.0, 14 μL) and DTT solution (200 mM, 1.5 μL) were added and incubated at 37° C. for 1 hour. After that, iodoacetamide (800 mM, 1 μL) was added and incubated at room temperature for 30 minutes. The resulting solution was diluted 2-fold using Tris buffer (50 mM, pH 8.0), and then Trypsin/Lys-C mix (Promega, 0.2 μg/μL in solution, 6 μL) was added and incubated at 37° C. for 18 hours. The reaction solution was then purified by pipetting with Ziptip, lyophilized, and analyzed by nLC-MS/MS (using nLC-MS/MS method B). Obtained raw data were analyzed using Thermo Scientific FreeStyle™ 1.6. […]
The modified trastuzumab (30 μg) from entry 6 of 5.2.1 was diluted to 36 μL using Tris buffer (50 mM, pH 8.0). […] The reaction solution was then purified by pipetting with Ziptip, lyophilized, and analyzed by nLC-MS/MS (using nLC-MS/MS method B). Obtained raw data were analyzed using Thermo Scientific FreeStyle™ 1.6. […]

mouse IgG = assay: Azido transfer to mouse IgG in mouse serum (E1/E2 sandwich ELISA); format: biochemical; conditions: after 2 h of incubation in mouse sera
Excerpt: Two sandwich ELISA assays have been developed in-house, one for the detection of the azido moiety conjugated mouse IgG (mIgG, E1), the other one for the detection of the whole mIgGs (modified and unmodified) in the sample (E2). Both E1 and E2 were run simultaneously on a same plate, using the same initial stock sample, and were processed in parallel at the same time for every steps. The same azido-free capture goat anti-mouse polyclonal antibody (Creative Diagnostics) was used for both E1-E2 assays at 1 μg/mL (100 μL per well) for incubation overnight at 4° C. Washing steps were performed thoroughly between each incubation by using 0.02% Tween 20-PBS. […] Absorbances were measured at 450 nm and 540 nm (A0=A450 nm-A540 nm) using a Spark microplate reader (Tecan, USA). The background noise (Ablank) from the serum was subtracted to get the final absorbance of the sample (Asample=A0-Ablank). The ratio Asample (E1)/Asample (E2) was calculated to estimate the percentage of azido transfer on the total amount of IgG in the sample.
Two sandwich ELISA assays have been developed in-house, one for the detection of the azido moiety conjugated mouse IgG (mIgG, E1), the other one for the detection of the whole mIgGs (modified and unmodified) in the sample (E2). […] Absorbances were measured at 450 nm and 540 nm (A0=A450nm−A540nm) using a Spark microplate reader (Tecan, USA). […]

[2] = Whole-body biodistribution of [89Zr]Zr-labelled affinity peptides after subcutaneous injection (gamma counter); conditions: mouse, in vivo, sc
Method: Additionally, 4 mice were sacrificed at each of these time points for determining the distribution in each organ using a gamma counter.
First, 1, 2, 3 were dissolved in HEPES buffer (100 mM in ultra-trace elemental water; Fisher Scientific, pH 6.7) to prepare a 2 mg/mL solution of each.
The obtained samples were incubated with 37 MBq of [^89Zr]Zr-oxalate (obtained from Mallinckrodt Institute of Radiology, Nuclear Pharmacy Cyclotron; dilution in 0.5 M HEPES, pH 6.7) for 1 hour in the wet ice under mild agitation. Purification was then performed using a Zeba spin column (0.5 mL, 7K MWCO) to remove the non-complexed [^89Zr]Zr-oxalate, for 5 min at 1,200 rcf. Instant-thin layer chromatography (iTLC) was performed to verify the success of the radiolabeling with elution in 0.1 M citrate buffer.

[3] = mouse, in vivo, ip
Method: Each sample was weighted and count in a gamma counter (Wizard2, Perkin Elmer LLC, USA) to get the counts per minutes (cpm) for determining the percentage of injected activity per gram (% IA/g) in each organ. Cpm were decay-corrected by using the following formula: A=A0 e((−(ln2)Δt)/T) with A=decay-corrected cpm, A0=raw cpm, Δt=time difference between the injection and the cpm measurement, and T=half-life of the radionuclide (i.e. 78.41 h for Zr-89).

Trastuzumab [4] = target: T1, Trastuzumab; assay: Bioconjugation handle / GLP1 transfer to trastuzumab, analyzed by Q-ToF LC-MS; format: biochemical; conditions: 10 equivalents, 100 mM HEPES pH 8.5, room temperature, 24 h

T1 sequence (P01857 with tags, fused parts or gaps isoform P01857-1 D239E/L241M, other chains not shown): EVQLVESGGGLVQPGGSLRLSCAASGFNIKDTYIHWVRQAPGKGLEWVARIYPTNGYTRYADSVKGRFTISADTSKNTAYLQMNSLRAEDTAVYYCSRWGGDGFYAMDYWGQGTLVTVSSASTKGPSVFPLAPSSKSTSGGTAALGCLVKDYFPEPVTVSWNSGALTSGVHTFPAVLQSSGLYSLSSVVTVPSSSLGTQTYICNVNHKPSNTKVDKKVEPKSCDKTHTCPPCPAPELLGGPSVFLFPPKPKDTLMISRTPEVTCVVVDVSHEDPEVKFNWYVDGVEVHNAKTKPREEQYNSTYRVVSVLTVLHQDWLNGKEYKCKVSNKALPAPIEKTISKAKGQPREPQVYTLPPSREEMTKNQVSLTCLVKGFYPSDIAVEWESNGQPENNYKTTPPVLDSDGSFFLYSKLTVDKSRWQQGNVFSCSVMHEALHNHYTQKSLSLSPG

## FNMQQQRRFYEALHD PNLNHcyEQRNAKIKSI RDD [PEL-21]
Trastuzumab [1]
  Site of modification: Lys-317
Mouse IgG
  IgG conversion rate in mouse sera: 33±1%
[2]
  Time detectable in the kidneys: up to 240 hours
[3]
  Time remaining in specific organs: up to 144 hours
Trastuzumab [4]
  Light chain total conversion: 5%
